# Assay results taken from publication PMC3540084.
# Legend:
# [1] = target: T1, recombinant human caspase-3 (human) (UniProt P42574)
# T1 sequence: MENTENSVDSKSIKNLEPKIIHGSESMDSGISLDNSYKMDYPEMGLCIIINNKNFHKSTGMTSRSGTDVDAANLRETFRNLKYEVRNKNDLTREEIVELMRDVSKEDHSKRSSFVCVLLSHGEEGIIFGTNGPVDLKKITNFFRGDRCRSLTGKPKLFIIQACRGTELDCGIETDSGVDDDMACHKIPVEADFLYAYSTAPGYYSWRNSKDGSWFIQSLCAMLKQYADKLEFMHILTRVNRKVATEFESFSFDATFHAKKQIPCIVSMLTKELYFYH
# [2] = target: T2, recombinant human caspase-6 (human) (UniProt P55212)
# T2 sequence: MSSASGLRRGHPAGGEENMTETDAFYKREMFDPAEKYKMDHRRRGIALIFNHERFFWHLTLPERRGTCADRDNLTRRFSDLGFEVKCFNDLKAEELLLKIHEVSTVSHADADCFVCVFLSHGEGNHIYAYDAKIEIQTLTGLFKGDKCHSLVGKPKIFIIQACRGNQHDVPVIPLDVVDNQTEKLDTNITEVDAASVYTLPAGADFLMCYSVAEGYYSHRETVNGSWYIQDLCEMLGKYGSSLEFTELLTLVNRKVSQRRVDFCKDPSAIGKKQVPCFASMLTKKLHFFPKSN
# [3] = target: recombinant human caspase-9 (human) (UniProt P55211)
# [4] = target: T3, recombinant human caspase-7 (human) (UniProt P55210)
# T3 sequence: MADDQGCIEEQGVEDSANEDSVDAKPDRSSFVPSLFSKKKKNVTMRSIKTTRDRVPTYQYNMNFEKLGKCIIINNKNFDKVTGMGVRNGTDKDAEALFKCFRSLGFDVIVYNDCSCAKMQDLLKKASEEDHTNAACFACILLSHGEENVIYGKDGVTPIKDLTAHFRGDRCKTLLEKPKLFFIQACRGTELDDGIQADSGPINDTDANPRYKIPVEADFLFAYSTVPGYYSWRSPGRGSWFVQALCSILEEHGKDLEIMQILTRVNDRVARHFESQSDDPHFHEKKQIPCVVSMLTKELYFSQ
# Sequence of UniProt P55211 (P55211 whole entry): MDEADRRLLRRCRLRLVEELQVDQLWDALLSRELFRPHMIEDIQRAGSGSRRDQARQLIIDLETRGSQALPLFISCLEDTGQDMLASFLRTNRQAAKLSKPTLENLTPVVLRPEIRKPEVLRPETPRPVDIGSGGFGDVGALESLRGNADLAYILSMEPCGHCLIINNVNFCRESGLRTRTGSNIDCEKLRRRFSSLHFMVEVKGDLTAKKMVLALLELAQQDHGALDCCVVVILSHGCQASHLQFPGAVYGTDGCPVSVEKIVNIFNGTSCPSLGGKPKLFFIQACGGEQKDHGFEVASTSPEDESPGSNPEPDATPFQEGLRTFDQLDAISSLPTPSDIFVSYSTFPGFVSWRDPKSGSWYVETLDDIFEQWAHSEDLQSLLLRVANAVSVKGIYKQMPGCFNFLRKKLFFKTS
substance,measurement,setting,value
recombinant human IL-1Ra (from UniProt P18510 26-177) (natural protein),"i 0,5 of inhibition of rh-caspase-3 activity (release of AMC from Ac-DEVD-AMC, substrate at Km concentration, 22°C)",[1],2.5 µM
same,"i 0,5 of inhibition of rh-caspase-6 activity (release of AMC from Ac-DEVD-AMC, substrate at Km concentration, 22°C)",[2],2.2 µM
same,"i 0,5 of inhibition of rh-caspase-9 activity (release of AMC from Ac-LEHD-AMC, substrate at Km concentration, 22°C)",[3],0.31 µM
same,percent inhibition of rh-caspase-9 activity by 100 nM IL-1Ra,[3],41%
same,"i 0,5 of inhibition of rh-caspase-7 activity (release of AMC from Ac-DEVD-AMC, substrate at Km concentration, 22°C)",[4],1.3 µM
